The source of these data is article PMC11101554, “Pyruvate kinase 2 from Synechocystis sp. PCC 6803 increased substrate affinity via glucose-6-phosphate and ribose-5-phosphate for phosphoenolpyruvate consumption” (Plant Molecular Biology, 2024).

Data set [1] has as its target T1, SyPyk2 (Synechocystis pyruvate kinase 2) (Synechocystis sp. PCC 6803, UniProt P73534).
T1 construct: gene pyk2; synthesized gene in pGEX6P-1 (BamHI-XhoI), GST fusion from E. coli BL21, GST tag cut by PreScission protease; untagged 63 kDa
T1 sequence (P73534 1-591): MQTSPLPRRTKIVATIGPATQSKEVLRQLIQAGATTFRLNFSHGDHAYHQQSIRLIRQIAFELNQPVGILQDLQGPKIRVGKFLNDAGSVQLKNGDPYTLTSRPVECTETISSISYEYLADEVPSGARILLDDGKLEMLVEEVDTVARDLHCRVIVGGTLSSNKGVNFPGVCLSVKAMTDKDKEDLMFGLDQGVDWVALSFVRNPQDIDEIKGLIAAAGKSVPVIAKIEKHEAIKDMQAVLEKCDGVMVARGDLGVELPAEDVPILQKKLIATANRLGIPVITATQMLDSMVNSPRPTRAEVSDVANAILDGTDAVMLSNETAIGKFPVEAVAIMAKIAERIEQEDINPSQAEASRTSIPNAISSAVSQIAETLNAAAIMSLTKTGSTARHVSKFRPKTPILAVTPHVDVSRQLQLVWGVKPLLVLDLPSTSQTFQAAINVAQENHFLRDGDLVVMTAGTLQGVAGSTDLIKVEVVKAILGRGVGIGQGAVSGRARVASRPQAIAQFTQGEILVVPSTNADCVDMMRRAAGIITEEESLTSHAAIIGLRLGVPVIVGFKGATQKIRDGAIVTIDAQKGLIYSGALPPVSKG
The data set is described as follows: LDH-coupled assay, NADH oxidation at […] nm. To be noted: read-out: % activity at 1 mM. It counts as biochemical.

Data set [2] deals with T1, SyPyk2 (Synechocystis pyruvate kinase 2). The data set is described as follows: LDH-coupled assay, NADH oxidation at […] nm. It counts as biochemical.
Substrate in data set [3]: C=C(OP(=O)(O)O)C(=O)O
Briefly: purified protein. It counts as biochemical, Synechocystis sp. PCC 6803. The conditions noted are these: 55 °C, pH 7.0 MES-NaOH, 2 mM ADP, 15 mM MgCl2, 100 mM KCl, no effector, sigmoidal (half-saturation, cooperative).

Substrate in data set [4]: Nc1ncnc2c1ncn2[C@@H]1O[C@H](COP(=O)(O)OP(=O)(O)O)[C@@H](O)[C@H]1O
The data set is described as follows: purified protein. It is filed as biochemical, Synechocystis sp. PCC 6803. The conditions noted are these: 55 °C, pH 7.0 MES-NaOH, 5 mM PEP, 15 mM MgCl2, 100 mM KCl, hyperbolic.

As to `O=P(O)(O)OC[C@H]1OC(O)[C@H](O)[C@@H](O)[C@@H]1O` (stereo partly drawn) [G6P, glucose-6-phosphate], in data set [1], the activity at 1000 µM is around 200%.

As a reminder, the IC50 is the midpoint of a concentration-inhibition curve. A high value points to weaker potency in that assay. Consider `Nc1ncnc2c1ncn2[C@@H]1O[C@H](COP(=O)(O)OP(=O)(O)OP(=O)(O)O)[C@@H](O)[C@H]1O` [ATP, adenosine triphosphate], for which the IC50 in data set [2] was found to be 4.1 mM.

For `O=P(O)(O)OC[C@H]1OC(O)[C@H](O)[C@@H]1O` (stereo partly drawn) [R5P, ribose-5-phosphate], the activity at 1000 µM in data set [1] was around 150%.

B1: SyPyk2 (Synechocystis pyruvate kinase 2) (Synechocystis sp. PCC 6803 substr. Kazusa) (protein)
chain: MQTSPLPRRTKIVATIGPATQSKEVLRQLIQAGATTFRLNFSHGDHAYHQQSIRLIRQIAFELNQPVGILQDLQGPKIRVGKFLNDAGSVQLKNGDPYTLTSRPVECTETISSISYEYLADEVPSGARILLDDGKLEMLVEEVDTVARDLHCRVIVGGTLSSNKGVNFPGVCLSVKAMTDKDKEDLMFGLDQGVDWVALSFVRNPQDIDEIKGLIAAAGKSVPVIAKIEKHEAIKDMQAVLEKCDGVMVARGDLGVELPAEDVPILQKKLIATANRLGIPVITATQMLDSMVNSPRPTRAEVSDVANAILDGTDAVMLSNETAIGKFPVEAVAIMAKIAERIEQEDINPSQAEASRTSIPNAISSAVSQIAETLNAAAIMSLTKTGSTARHVSKFRPKTPILAVTPHVDVSRQLQLVWGVKPLLVLDLPSTSQTFQAAINVAQENHFLRDGDLVVMTAGTLQGVAGSTDLIKVEVVKAILGRGVGIGQGAVSGRARVASRPQAIAQFTQGEILVVPSTNADCVDMMRRAAGIITEEESLTSHAAIIGLRLGVPVIVGFKGATQKIRDGAIVTIDAQKGLIYSGALPPVSKG
notes: synthesized gene in pGEX6P-1 (BamHI-XhoI), GST fusion from E. coli BL21, GST tag cut by PreScission protease; untagged 63 kDa
Broadly, the Km is the concentration of substrate that gives half-maximal velocity. The kcat is the maximal rate divided by the concentration of active sites. The kcat/Km is the second-order rate constant that governs catalysis at low substrate concentration. For B1, in “purified protein [3]”, the Michaelis constant (Km) amounted to 1530 ± 70 µM, the kcat worked out at 253 ± 11 s⁻¹ and the kcat/Km turned out to be 166000 ± 3000 M⁻¹ s⁻¹. In addition, in the data set “purified protein [4]”, the Km was determined as 52.7 ± 7.6 µM, the kcat was found to be 251 ± 6 s⁻¹ and the kcat/Km was 4.84e+06 ± 733000 M⁻¹ s⁻¹.
